Laboratory results: patent US20050182242A1, “Global analysis of protein activities using proteome chips” (priority 2001, published 2005)

Key:
PI(4)P liposomes = assay: Yeast proteome chip probed with PI(4)P liposomes; conditions: liposome binding signal on yeast proteome chip, Cy3-streptavidin detection
[1] = system: phosphatidylcholine (PC) liposomes; assay: Yeast proteome chip probed with PC liposomes; conditions: liposome binding signal on yeast proteome chip, Cy3-streptavidin detection
Procedure, shortened: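 Sonicated liposomes in TBS, of phosphatidylcholine with 1% (w/w) biotin-DHPE plus 5% (w/w) of the named phosphoinositide (PC-only liposomes lacking it), were incubated on blocked chips of GST-RGS-His6-tagged yeast ORF proteins for 1 h at RT. Bound liposomes were detected with Cy3- or Cy5-streptavidin after PBS washes.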

PI(4,5)P2 liposomes = assay: Yeast proteome chip probed with PI(4,5)P2 liposomes; conditions: liposome binding signal on yeast proteome chip, Cy3-streptavidin detection
PI(3,4,5)P3 liposomes = assay: Yeast proteome chip probed with PI(3,4,5)P3 liposomes; conditions: liposome binding signal on yeast proteome chip, Cy3-streptavidin detection
PI(3)P liposomes = assay: Yeast proteome chip probed with PI(3)P liposomes; conditions: liposome binding signal on yeast proteome chip, Cy3-streptavidin detection
PI(3,4)P2 liposomes = assay: Yeast proteome chip probed with PI(3,4)P2 liposomes; conditions: liposome binding signal on yeast proteome chip, Cy3-streptavidin detection
[2] = system: phospholipids (phosphatidylinositols vs phosphatidylcholine); assay: Proteome chip lipid-binding screen, overall analysis of six liposomes (PI/PC specificity); conditions: for preferential binding of particular phosphatidylinositol lipids: compared with phosphatidylcholine; for identified as lipid-binding interactor: phospholipid liposome probes
Text: FIGS. 4A-4D. Analysis of the phosphatidylinositol-binding proteins. To determine the phosphatidylinositol (“PI”)-binding specificity of 150 positive proteins, their binding signals were normalized against the corresponding binding signals of phosphatidylcholine (“PC”). Based on the ratios (“PI/PC”), the proteins were grouped into four categories: (A) 30 strong and specific, (B) 43 strong and nonspecific, (C) 19 weak and specific, and (D) 58 weak and nonspecific phosphatidylinositol-binding proteins. The intensity represents the PI/PC signal ratio as shown by the scale in the figure. The column, labeled “10^n” to the right of the PI/PC binding ratios indicates the maximum binding signal intensity (open boxes) and its confidence interval (solid horizontal lines); the numbers indicate the log of the values. Boxes in the three columns to the right of the confidence interval column indicate membrane-associated proteins (“Membrane”), kinases (“Kinase”), and uncharacterized ORFs (“Unknown”), respectively.
To identify PI-binding proteins in yeast, liposomes were used as probes because the liposome provides the most relevant physiological condition to assay the interactors. Six types of liposomes were used. Each contains phosphatidylcholine (“PC”) with 1% (w/w) N-(biotinoyl)-1,2-dihexadecanoyl-sn-glycero-3-phosphoethanolamine, triethylammonium salt (biotin DHPE). The biotinylated lipid serves as a label that can be detected by Cy3-streptavidin (21). In addition to PC, the five other liposomes contain either 5% (w/w) PI(3)P, PI(4)P, PI(3,4)P2, PI(4,5)P2, or PI(3,4,5)P3 (FIG. 3A).
The protein-liposome interaction was assayed as follows. Appropriate amounts of each lipid in chloroform were mixed and dried under nitrogen. The lipid mixture was resuspended in TBS buffer by vortexing. The liposomes were created by sonication. Blocked proteome chips were washed three to five times in PBS buffer, and the extra liquid on the glass surface was removed by tapping the slides vertically on a KIMWIPE™. 200 μl of liposome solution was added to the proteome chip and immediately covered by a hydrophobic plastic cover slip (GRACE BIO-LAB™, USA). After trapped air bubbles were removed, the chip was incubated in a humidity chamber at RT for one hour. To remove the cover slip, the chip was immersed into large volume of PBS buffer (50 ml), so that the slip would float away. The chip was then moved to a second PBS bath (>50 ml) and washed 3×5 min with shaking at RT. After removing extra liquid on the surface of the chip, about 100 μl of Cy3 or Cy5 conjugated streptavidin (PIERCE™, USA; 1:2000 to 1:4000 dilution) was added to the surface and covered by a hydrophobic plastic cover slip (GRACE BIO-LABS™, USA). The chip was incubated for greater than 30 min in the dark at RT. The chip was then washed as described above. To completely remove the liquid on the chip, the chip was spun to dryness at 1500-2000 rpm for 5-10 min at RT.
An algorithm was devised to assist in the identification of positive signals (42). Fifty-two (35%) of the interactors (i.e., lipid-binding proteins) correspond to uncharacterized proteins thus ascribing the first biochemical activities to those proteins.
The interactors (i.e., phospholipid-binding proteins) were grouped in several ways (42). First, the interactors were sorted according to whether they bound lipids strongly or weakly, based on the phospholipid-binding signal relative to the amount of GST (FIG. 4). Slightly more (72%) of the strong lipid binding proteins (FIGS. 4A and 4B) were characterized relative to the weakly binding proteins (54%) (FIGS. 4C and 4D). Many of the strong lipid-binding proteins are membrane-associated, or are predicted to be associated with membranes, whereas fewer of the weaker binding proteins appear to be associated with membranes (FIG. 4, “Membrane” column). […] Moreover, thirteen of the seventeen protein kinases bind very strongly to the phospholipids. […]

Molecule	PI(4)P (PI(4)P liposomes)	PC [1]	PI(4, 5)P2 (PI(4,5)P2 liposomes)	PI(3, 4, 5)P3 (PI(3,4,5)P3 liposomes)	PI(3)P (PI(3)P liposomes)	PI(3, 4)P2 (PI(3,4)P2 liposomes)	preferential binding of particular phosphatidylinositol lipids [2]	identified as lipid-binding interactor [2]
STP22: yeast protein required for vacuolar targeting of plasma membrane proteins, GST-HisX6 fusion (protein, UniProt P25604 1-385, looked up, GST-His6 fusion tag) Suppressor protein STP22 of …: MSANGKISVPEAVVNWLFKVIQPIYNDGRTTFHDSLALLDNFHSLRPRTRVFTHSDGTPQLLLSIYGTISTGEDGSSPHSIPVIMWVPSMYPVKPPFISINLENFDMNTISSSLPIQEYIDSNGWIALPILHCWDPAAMNLIMVVQELMSLLHEPPQDQAPSLPPKPNTQLQQEQNTPPLPPKPKSPHLKPPLPPPPPPQPASNALDLMDMDNTDISPTNHHEMLQNLQTVVNELYREDVDYVADKILTRQTVMQESIARFHEIIAIDKNHLRAVEQAIEQTMHSLNAQIDVLTANRAKVQQFSSTSHVDDEDVNSIAVAKTDGLNQLYNLVAQDYALTDTIECLSRMLHRGTIPLDTFVKQGRELARQQFLVRWHIQRITSPLS	10.89	2.93	−8.27	22.05	51.50	8.79	preferentially binds PI(4)P	
SPS2: yeast sporulation protein of prospore membrane, GST-HisX6 fusion (protein, UniProt P08459 57-475, looked up, GST-His6 tag, yeast sporulation protein of prospore membrane, GST-HisX6 fusion) Sporulation-specific protein 2: AVEPNGGPNILDHNIMLVNTNATIPKKEQTDFEVISPTKQTQVDEDCKKGLYHIENAGNLIELQAKCWKVVGNIEISSNYSGSLIDLGLIREIEGDLIIKNNKHIFRIQGYNLESLGKLELDSLTSFVSLDFPALKEVETVDWRVLPILSSVVINGNIKKIKNIIISDTALTSIDYFNNVKKVDIFNINNNRFLENLFASLESVTKQLTVHSNAKELELDLSNLHTVENMTIKDVSEIKLAKLSSVNSSLEFIENQFSSLELPLLAKVQGTLGLIDNKNLKKLNFSNATDIQGGLMIANNTELAKIDFFPKLRQIGGAIYFEGSFDKIDLPELKLVKGSAYIKSSSEELNCEEFTSPKAGRSIIRGGKIECTSGMKSKMLNVDEEGNVLGKQETDNDNGKKEKGKNGAKSQGSSKKMEN	47.47	44.61	64.02	25.31	18.50	54.63	preferentially interacts with PI(3)P	
GPM3: yeast phosphoglycerate mutase, GST-HisX6 fusion (protein, UniProt Q12326 1-303, looked up, GST-His6 tag, yeast phosphoglycerate mutase, GST-HisX6 fusion) Phosphoglycerate mutase 3: MTVTDTFKLFILRHGQSELNSENIFCGWIDAQLTEKGKSQARHSAKLIKQFCDSNNISLPQIGYTSRLIRTQQTMDVILEELGLKHTNYVITTNTNIKEELQDTRFEGSMPVLQTWRLNERHYGAWQGQRKPDILKEYGKEKYMYIRRDYNGKPPKVNLNLEMVQEENDQGSSTGYDFKEPNRHLKYGPEEKANERLPESESLCEVVVRLKPFLNNVVLSTANKISQESCVIVGHGSSVRSLLKVLEGISDEDIKDVDIPNGIPLVIELDRDNYSFVRKFYLDPESAKVNAQMVRDEGFEKNP	85.35	137.64	112.57	66.04	42.50	85.40		identified
PYK1: yeast pyruvate kinase, GST-HisX6 fusion (protein, UniProt P00549 2-500, looked up, GST-HisX6 tag, yeast pyruvate kinase, GST-HisX6 fusion) Pyruvate kinase 1: SRLERLTSLNVVAGSDLRRTSIIGTIGPKTNNPETLVALRKAGLNIVRMNFSHGSYEYHKSVIDNARKSEELYPGRPLAIALDTKGPEIRTGTTTNDVDYPIPPNHEMIFTTDDKYAKACDDKIMYVDYKNITKVISAGRIIYVDDGVLSFQVLEVVDDKTLKVKALNAGKICSHKGVNLPGTDVDLPALSEKDKEDLRFGVKNGVHMVFASFIRTANDVLTIREVLGEQGKDVKIIVKIENQQGVNNFDEILKVTDGVMVARGDLGIEIPAPEVLAVQKKLIAKSNLAGKPVICATQMLESMTYNPRPTRAEVSDVGNAILDGADCVMLSGETAKGNYPINAVTTMAETAVIAEQAIAYLPNYDDMRNCTPKPTSTTETVAASAVAAVFEQKAKAIIVLSTSGTTPRLVSKYRPNCPIILVTRCPRAARFSHLYRGVFPFVFEKEPVSDWTDDVEARINFGIEKAKEFGILKKGDTYVSIQGFKAGAGHSNTLQVSTV	10.45	6.46	−13.06	−1.12	−9.00	−5.02		identified
SNF1: yeast protein kinase, regulator of glucose metabolism, GST-HisX6 fusion (protein, UniProt P06782 1-633, looked up) Carbon …: MSSNNNTNTAPANANSSHHHHHHHHHHHHHGHGGSNSTLNNPKSSLADGAHIGNYQIVKTLGEGSFGKVKLAYHTTTGQKVALKIINKKVLAKSDMQGRIEREISYLRLLRHPHIIKLYDVIKSKDEIIMVIEYAGNELFDYIVQRDKMSEQEARRFFQQIISAVEYCHRHKIVHRDLKPENLLLDEHLNVKIADFGLSNIMTDGNFLKTSCGSPNYAAPEVISGKLYAGPEVDVWSCGVILYVMLCRRLPFDDESIPVLFKNISNGVYTLPKFLSPGAAGLIKRMLIVNPLNRISIHEIMQDDWFKVDLPEYLLPPDLKPHPEEENENNDSKKDGSSPDNDEIDDNLVNILSSTMGYEKDEIYESLESSEDTPAFNEIRDAYMLIKENKSLIKDMKANKSVSDELDTFLSQSPPTFQQQSKSHQKSQVDHETAKQHARRMASAITQQRTYHQSPFMDQYKEEDSTVSILPTSLPQIHRANMLAQGSPAASKISPLVTKKSKTRWHFGIRSRSYPLDVMGEIYIALKNLGAEWAKPSEEDLWTIKLRWKYDIGNKTNTNEKIPDLMKMVIQLFQIETNNYLVDFKFDGWESSYGDDTTVSNISEDEMSTFSAYPFLHLTTKLIMELAVNSQSN	1795.06	1774.37	423.73	560.70	202.00	298.26		identified
